Consider one protein from article PMC6588637, “Immunization with merozoite surface protein 2 fused to a Plasmodium-specific carrier protein elicits strain-specific and strain-transcending, opsonizing antibody” (Scientific Reports, 2019).

This data set deals with the molecule itself. Nature of the data set: Thioflavin T fluorescence assay of amyloid-like fibril formation; 10 μM recombinant protein in PBS without sarkosyl, 30 μM ThT, 37 °C for up to 98 hours; in parallel with 40 μM EGCG, an inhibitor of fibril formation.

B1: unfused recombinant Plasmodium falciparum merozoite surface protein 2 (3D7 allele) (domain or fragment)
chain: KNESKYSNTFINNAYNMSIRRSMAESKPSTGAGGSAGGSAGGSAGGSAGGSAGGSAGSGDGNGADAEGSSSTPATTTTTKTTTTTTTTNDAEASTSTSSENPNHKNAETNPKGKGEVQEPNQANKETQNNSNVQQDSQTKSNVPPTQDADTKSPTAQPEQAENSAPTAEQTESPELQSAPENKGTGQHGHMHGSRNNHPQNTSDSQKECTDGNKENCGAATSLLNNSS
notes: Predicted molecular weight 24,721 daltons; also called rPfMSP2; rPfMSP2 (3D7); not shown: His6, N-terminal, kept
As for B1, the binding result was “binds”.
